Experimental data as given in patent US20180155451A1 (published 2018).

T1: FcγRIIb (human, UniProt P31994 43-217)
T1 construct: extracellular domain; also called FcgRIIb; 2b; not shown: His tag attached to the C terminus
T1 sequence (looked up): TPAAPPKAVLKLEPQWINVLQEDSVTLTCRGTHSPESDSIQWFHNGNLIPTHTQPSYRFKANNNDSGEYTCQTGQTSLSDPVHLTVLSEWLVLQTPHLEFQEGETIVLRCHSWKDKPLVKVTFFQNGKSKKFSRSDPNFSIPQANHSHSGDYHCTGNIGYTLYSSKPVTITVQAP

T2: FcγRIIa H (human, UniProt P12318 34-217)
T2 construct: extracellular domain; also called FcgRIIa H; FcγRIIa type H; not shown: His tag attached to the C terminus
T2 sequence (looked up): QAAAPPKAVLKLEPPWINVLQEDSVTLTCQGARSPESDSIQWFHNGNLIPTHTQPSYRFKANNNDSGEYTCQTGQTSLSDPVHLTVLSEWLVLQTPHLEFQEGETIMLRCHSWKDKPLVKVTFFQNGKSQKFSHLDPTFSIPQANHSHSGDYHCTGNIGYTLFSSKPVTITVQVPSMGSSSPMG


Tests used:
[1] = target: T1, FcγRIIb; assay: SPR (Biacore), antibody captured, FcγR as analyte; binding relative to GpH7-A5/GpH7-B3/GpL16-k0 = 100
[2] = target: T2, FcγRIIa H; assay: as above
[3] = target: T3, FcγRIa extracellular domain with C-terminal His tag (human, UniProt P12314 16-292); assay: SPR Biacore, antibody captured, FcγRIa analyte; vs GpH7-B3/GpL16-k0 = 100
T3 construct: extracellular domain; Expressed in FreeStyle293 cells; analyte in Biacore; also called FcgRI; FcgRIa
T3 sequence (P12314 16-292): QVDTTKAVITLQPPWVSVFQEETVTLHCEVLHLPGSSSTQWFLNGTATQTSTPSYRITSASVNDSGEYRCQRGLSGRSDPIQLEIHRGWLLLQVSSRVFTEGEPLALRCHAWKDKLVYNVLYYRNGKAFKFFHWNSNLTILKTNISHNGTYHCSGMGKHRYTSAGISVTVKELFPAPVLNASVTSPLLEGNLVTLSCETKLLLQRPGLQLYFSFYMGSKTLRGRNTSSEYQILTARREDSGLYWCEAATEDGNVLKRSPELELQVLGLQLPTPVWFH

Row | He/Con_2b [1] [control = 100] | He/Con_2aH [2] [control = 100] | Ho/Con_1a [3] | Binder
1 | – | – | 102 relative (control = 100) | GpH7-B3 variant P271_02A/GpL16-k0 (Ho Ab) (antibody, human IgG1, kappa, Ho Ab: alteration in both H chains) heavy: not shown light: DIVMTQSPLSLPVTPGEPASISCQASESLVHSNRNTYLHWYLQKPGQSPQLLIYKVSNRFSGVPDRFSGSGSGTDFTLKISRVEAEDVGVYYCSQNTHVPPTFGQGTKVEIERTVAAPSVFIFPPSDEQLKSGTASVVCLLNNFYPREAKVQWKVDNALQSGNSQESVTEQDSKDSTYSLSSTLTLSKADYEKHKVYACEVTHQGLSSPVTKSFNRGEC
2 | 73.6 | 108 | – | GpH7-A5/GpH7-B3 variant Y300_08L/GpL16-k0 (antibody, human IgG1, kappa, Heterodimerized IgG1, mutation in the GpH7-B3 chain only; also called He Ab) heavy 1: not shown heavy 2: not shown light: DIVMTQSPLSLPVTPGEPASISCQASESLVHSNRNTYLHWYLQKPGQSPQLLIYKVSNRFSGVPDRFSGSGSGTDFTLKISRVEAEDVGVYYCSQNTHVPPTFGQGTKVEIERTVAAPSVFIFPPSDEQLKSGTASVVCLLNNFYPREAKVQWKVDNALQSGNSQESVTEQDSKDSTYSLSSTLTLSKADYEKHKVYACEVTHQGLSSPVTKSFNRGEC
3 | 92.2 | 104 | – | GpH7-A5/GpH7-B3 variant Y296_16H/GpL16-k0 (antibody, human IgG1, kappa, Heterodimerized IgG1, mutation in the GpH7-B3 chain only; also called He Ab) heavy 1: not shown heavy 2: not shown light: DIVMTQSPLSLPVTPGEPASISCQASESLVHSNRNTYLHWYLQKPGQSPQLLIYKVSNRFSGVPDRFSGSGSGTDFTLKISRVEAEDVGVYYCSQNTHVPPTFGQGTKVEIERTVAAPSVFIFPPSDEQLKSGTASVVCLLNNFYPREAKVQWKVDNALQSGNSQESVTEQDSKDSTYSLSSTLTLSKADYEKHKVYACEVTHQGLSSPVTKSFNRGEC

More lines, now with the values behind:

Row | Binder | He/Con_2b [1] [control = 100] | He/Con_2aH [2] [control = 100] | Ho/Con_1a [3]
4 | GpH7-A5/GpH7-B3 variant I332_19Q/GpL16-k0 (antibody, human IgG1, kappa, Heterodimerized IgG1, mutation in the GpH7-B3 chain only; also called He Ab) heavy 1: not shown heavy 2: not shown light: DIVMTQSPLSLPVTPGEPASISCQASESLVHSNRNTYLHWYLQKPGQSPQLLIYKVSNRFSGVPDRFSGSGSGTDFTLKISRVEAEDVGVYYCSQNTHVPPTFGQGTKVEIERTVAAPSVFIFPPSDEQLKSGTASVVCLLNNFYPREAKVQWKVDNALQSGNSQESVTEQDSKDSTYSLSSTLTLSKADYEKHKVYACEVTHQGLSSPVTKSFNRGEC | 94.3 | 108 | –
5 | GpH7-A5/GpH7-B3 variant Q295_07I/GpL16-k0 (antibody, human IgG1, kappa, Heterodimerized IgG1, mutation in the GpH7-B3 chain only; also called He Ab) heavy 1: not shown heavy 2: not shown light: DIVMTQSPLSLPVTPGEPASISCQASESLVHSNRNTYLHWYLQKPGQSPQLLIYKVSNRFSGVPDRFSGSGSGTDFTLKISRVEAEDVGVYYCSQNTHVPPTFGQGTKVEIERTVAAPSVFIFPPSDEQLKSGTASVVCLLNNFYPREAKVQWKVDNALQSGNSQESVTEQDSKDSTYSLSSTLTLSKADYEKHKVYACEVTHQGLSSPVTKSFNRGEC | 84.3 | 102 | –
6 | GpH7-A5/GpH7-B3 variant Q295_05P/GpL16-k0 (antibody, human IgG1, kappa, Heterodimerized IgG1, mutation in the GpH7-B3 chain only; also called He Ab) heavy 1: not shown heavy 2: not shown light: DIVMTQSPLSLPVTPGEPASISCQASESLVHSNRNTYLHWYLQKPGQSPQLLIYKVSNRFSGVPDRFSGSGSGTDFTLKISRVEAEDVGVYYCSQNTHVPPTFGQGTKVEIERTVAAPSVFIFPPSDEQLKSGTASVVCLLNNFYPREAKVQWKVDNALQSGNSQESVTEQDSKDSTYSLSSTLTLSKADYEKHKVYACEVTHQGLSSPVTKSFNRGEC | 67.5 | 103 | –
7 | GpH7-A5/GpH7-B3 variant S324_09D/GpL16-k0 (antibody, human IgG1, kappa, Heterodimerized IgG1, mutation in the GpH7-B3 chain only; also called He Ab) heavy 1: not shown heavy 2: not shown light: DIVMTQSPLSLPVTPGEPASISCQASESLVHSNRNTYLHWYLQKPGQSPQLLIYKVSNRFSGVPDRFSGSGSGTDFTLKISRVEAEDVGVYYCSQNTHVPPTFGQGTKVEIERTVAAPSVFIFPPSDEQLKSGTASVVCLLNNFYPREAKVQWKVDNALQSGNSQESVTEQDSKDSTYSLSSTLTLSKADYEKHKVYACEVTHQGLSSPVTKSFNRGEC | 85.8 | 106 | –
8 | GpH7-A5/GpH7-B3 variant S324_20W/GpL16-k0 (antibody, human IgG1, kappa, Heterodimerized IgG1, mutation in the GpH7-B3 chain only; also called He Ab) heavy 1: not shown heavy 2: not shown light: DIVMTQSPLSLPVTPGEPASISCQASESLVHSNRNTYLHWYLQKPGQSPQLLIYKVSNRFSGVPDRFSGSGSGTDFTLKISRVEAEDVGVYYCSQNTHVPPTFGQGTKVEIERTVAAPSVFIFPPSDEQLKSGTASVVCLLNNFYPREAKVQWKVDNALQSGNSQESVTEQDSKDSTYSLSSTLTLSKADYEKHKVYACEVTHQGLSSPVTKSFNRGEC | 87.5 | 103 | –
9 | GpH7-A5/GpH7-B3 variant S324_15Y/GpL16-k0 (antibody, human IgG1, kappa, Heterodimerized IgG1, mutation in the GpH7-B3 chain only; also called He Ab) heavy 1: not shown heavy 2: not shown light: DIVMTQSPLSLPVTPGEPASISCQASESLVHSNRNTYLHWYLQKPGQSPQLLIYKVSNRFSGVPDRFSGSGSGTDFTLKISRVEAEDVGVYYCSQNTHVPPTFGQGTKVEIERTVAAPSVFIFPPSDEQLKSGTASVVCLLNNFYPREAKVQWKVDNALQSGNSQESVTEQDSKDSTYSLSSTLTLSKADYEKHKVYACEVTHQGLSSPVTKSFNRGEC | 88.2 | 102 | –
